{
  "source": "patent US20170096474A1",
  "about": "(published 2017)",
  "binders": {"B1": {"name": "B11 Fab (Fab, V domains shown)", "VH": "QVQLLQSAGGVVQPGRSLRLSCAASGFIFRTYGMHWVRQAPGKGLEWVAFVSSDGNNKFYSDSVKGRFTIPRDNAKNTLYLQMNSLETEDTAVYYCAKDRYPIDCSGGSCFSYGMDVWGQGTTVTVSS", "VL": "DIVMTQSPSTLSASVGDRVTVTCRASQSINSWLAWYQQKPGKAPKLLIYEASSLESGVPSRFSGSGSGTEFTLTISSLQPDDFATYYCQQYDSYWLTFGGGTKVEIKR"}, "B2": {"name": "A12 IgG (antibody, V domains shown)", "VH": "EVQLVESGGGVVQPGRSLRLSCAASGFTFSSYGMHWVRQAPGKGLEWVAVIWYDGSNKYYADSVKGRFTISRDNSKNTLYLQMNSLRAEDTAVYYCARGYSNYDYYYGMDVWGQGTTVTVSS", "VL": "DIQMTQSPSSLSASVGDRVTITCRASQRISNYLNWYQQKPGKAPKLLIYAASSLQSEVPSRFSGSGSGTDFTLTISSLQPEDFATYYCQQSYRPPLTFGGGTKVEIKR"}, "B3": {"name": "4B19.1 IgG (antibody, V domains shown)", "VH": "QVQLVQSGAEVKKPGASVNVSCKASGYTFTGYYIYWVRQAPGQGLEWMGWINPNSGVTKYAQKFQGRVTMTIDTSTNTAYMELNRLRADDTAVYYCAREWTQLWSPYDYWGQGTTVTVSS", "VL": "DIVLTQSPSTLSASVGDRVTISCRASRSIGWYLNWYQQRPGKAPKLLIYAASSLHNGVPSRFSGSGSGTEFTLTISSLQPDDFATYYCQQAFGFPRTFGQGTKVEIKR"}, "B4": {"name": "2B29 scFv (scFv)", "scFv": "QVQLQESGPGLVKPSETLSLTCSVSGGSINSGTYYWTWIRQHPGKGLEWIGYIYYSGTTYYNPSLKSRVSMSVDTSKNLFSLKMNSVTAADTALYYCARGNPQYDTSGSYTGLYFDFWGQGTLVTVSSGGGGSGGGGSGGGGSQPVLTQSPSASGTPGQRVTISCSGSSSNLGSNTVSWYQQLPGTAPKLLIYSNNQRPSGVPDRFSGSKSGTSASLAISGLQSEDEADYYCATWDDSLSGGVFGGGTKLTVL"}, "B5": {"name": "B11 scFv (scFv)", "scFv": "QVQLLQSAGGVVQPGRSLRLSCAASGFIFRTYGMHWVRQAPGKGLEWVAFVSSDGNNKFYSDSVKGRFTIPRDNAKNTLYLQMNSLETEDTAVYYCAKDRYPIDCSGGSCFSYGMDVWGQGTTVTVSSGGGGSGGGGSGGGGSDIVMTQSPSTLSASVGDRVTVTCRASQSINSWLAWYQQKPGKAPKLLIYEASSLESGVPSRFSGSGSGTEFTLTISSLQPDDFATYYCQQYDSYWLTFGGGTKVEIK"}, "B6": {"name": "1B11 scFv (scFv)", "scFv": "B5 scFv"}, "B7": {"name": "4E17.1 IgG (antibody, V domains shown)", "VH": "EVQLVRSGGNLVQPGGSLRLSCAATGPIGSHWMTWVRQAPGQGLEWVANINLDGTEKFYVDSVKGRFTVSRDNRKSSVFLQMNNLRVDDTAVYYCARLQWGGYNGWLSPWGQGTLVTVSS", "VL": "DIVMTQSPSSLSASVGDRVTISCRASQSIRHYVNWYQQKPGKAPKLLIYKASSLASGAPSRFSGSGSGTDFTLTISSLQPDDFATYYCQQSYSIPLTFGGGTKVEIKR"}, "B8": {"name": "1B18 scFv (scFv)", "scFv": "EVQLVQSGGGLVQPGGSRRLSCAASGFYFNAYWMTWVRQAPGKGLEWVANINLDGTEIYYLDSVKGRFTVSRDNVKNSVFLQMSSLRVEDTAVYFCARLEWGGRNGWVSPWGQGTLVTVSSGGGGSGGGGSGGGGSDVVMTQSPSSVSASVGDRVTITCRASQSISSYLNWYQQRPGKAPKLLIFAASSLQSAVPSRFSGSGSGTDFTLTISSLQPEDFATYYCQQSYSTPPTFGQGTKVEIK"}, "B9": {"name": "B6 Fab (Fab, V domains shown)", "VH": "QVQLVQSGAEVKKPGESLVISCKASGDKDTFTSFWIAWVRQMPGKGLEWMGIIYAGDSDTRYSPSFQGHVNISVDRSTNTAYLQWSSLKASDTAMYYCARHDSRYKYFYFGMDVWGQGTTVTVSS", "VL": "DVVMTQSPSSLSASVGDRITITCQAGQDISNFLNWYQQKPGKAPKLLIRDASNLETGVPSRFSGGGSGTHFTFTISSLHPEDIATYFCQQYDNLPYTFGQGTKLEIKR"}, "B10": {"name": "B6 scFv (scFv)", "scFv": "QVQLVQSGAEVKKPGESLVISCKASGDKDTFTSFWIAWVRQMPGKGLEWMGIIYAGDSDTRYSPSFQGHVNISVDRSTNTAYLQWSSLKASDTAMYYCARHDSRYKYFYFGMDVWGQGTTVTVSSGGGGSGGGGSGGGGSDVVMTQSPSSLSASVGDRITITCQAGQDISNFLNWYQQKPGKAPKLLIRDASNLETGVPSRFSGGGSGTHFTFTISSLHPEDIATYFCQQYDNLPYTFGQGTKLEIK"}, "B11": {"name": "6A12 IgG (antibody, V domains shown)", "VH": "QVQLVESGGGVVQPGRSLRLSCAASGFTFSSYGMHWVRQAPGKGLEWVSYISSSGSTIYYADSVKGRFTISRDNAKNSLYLQMNSLRAEDTAVYYCARVSIVGGPYGMDVWGQGTTVTVSS", "VL": "DIQMTQSPSSVSASVGNRVTITCRASQGISSWLAWYQQKPGKAPKLLIYAASSLQSGVPSRFSGSGSGTDFTLTISSLQPEDFATYYCQKANSFPLTFGGGTKMEIKR"}},
  "key": {"[1]": {"biological_target": "Botulinum neurotoxin type B, subtype B2 (BoNT/B2) (Clostridium botulinum)", "experiment": "flow cytometry, yeast-displayed Fab against yeast-displayed scFv"}, "[2]": {"biological_target": "T1, BoNT/B light chain (LC), yeast displayed (Clostridium botulinum, UniProt P10844 1-441)", "T1 sequence": "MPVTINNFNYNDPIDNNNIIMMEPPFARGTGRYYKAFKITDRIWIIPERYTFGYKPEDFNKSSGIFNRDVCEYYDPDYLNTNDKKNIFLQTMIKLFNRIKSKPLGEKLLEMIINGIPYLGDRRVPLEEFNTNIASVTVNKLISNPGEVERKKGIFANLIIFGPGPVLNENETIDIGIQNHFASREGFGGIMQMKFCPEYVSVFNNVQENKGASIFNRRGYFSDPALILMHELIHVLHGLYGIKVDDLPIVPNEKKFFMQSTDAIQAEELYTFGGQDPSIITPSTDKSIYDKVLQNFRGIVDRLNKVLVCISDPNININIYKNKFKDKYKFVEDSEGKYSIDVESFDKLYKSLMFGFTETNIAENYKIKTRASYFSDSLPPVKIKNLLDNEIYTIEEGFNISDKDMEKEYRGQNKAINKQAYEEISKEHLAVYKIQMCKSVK", "experiment": "labeled detection mAb in flow cytometry sorting"}, "[3]": {"biological_target": "T2, Botulinum neurotoxin type B, subtype B1 (BoNT/B1) (Clostridium botulinum, UniProt P10844 2-1291)", "T2 sequence": "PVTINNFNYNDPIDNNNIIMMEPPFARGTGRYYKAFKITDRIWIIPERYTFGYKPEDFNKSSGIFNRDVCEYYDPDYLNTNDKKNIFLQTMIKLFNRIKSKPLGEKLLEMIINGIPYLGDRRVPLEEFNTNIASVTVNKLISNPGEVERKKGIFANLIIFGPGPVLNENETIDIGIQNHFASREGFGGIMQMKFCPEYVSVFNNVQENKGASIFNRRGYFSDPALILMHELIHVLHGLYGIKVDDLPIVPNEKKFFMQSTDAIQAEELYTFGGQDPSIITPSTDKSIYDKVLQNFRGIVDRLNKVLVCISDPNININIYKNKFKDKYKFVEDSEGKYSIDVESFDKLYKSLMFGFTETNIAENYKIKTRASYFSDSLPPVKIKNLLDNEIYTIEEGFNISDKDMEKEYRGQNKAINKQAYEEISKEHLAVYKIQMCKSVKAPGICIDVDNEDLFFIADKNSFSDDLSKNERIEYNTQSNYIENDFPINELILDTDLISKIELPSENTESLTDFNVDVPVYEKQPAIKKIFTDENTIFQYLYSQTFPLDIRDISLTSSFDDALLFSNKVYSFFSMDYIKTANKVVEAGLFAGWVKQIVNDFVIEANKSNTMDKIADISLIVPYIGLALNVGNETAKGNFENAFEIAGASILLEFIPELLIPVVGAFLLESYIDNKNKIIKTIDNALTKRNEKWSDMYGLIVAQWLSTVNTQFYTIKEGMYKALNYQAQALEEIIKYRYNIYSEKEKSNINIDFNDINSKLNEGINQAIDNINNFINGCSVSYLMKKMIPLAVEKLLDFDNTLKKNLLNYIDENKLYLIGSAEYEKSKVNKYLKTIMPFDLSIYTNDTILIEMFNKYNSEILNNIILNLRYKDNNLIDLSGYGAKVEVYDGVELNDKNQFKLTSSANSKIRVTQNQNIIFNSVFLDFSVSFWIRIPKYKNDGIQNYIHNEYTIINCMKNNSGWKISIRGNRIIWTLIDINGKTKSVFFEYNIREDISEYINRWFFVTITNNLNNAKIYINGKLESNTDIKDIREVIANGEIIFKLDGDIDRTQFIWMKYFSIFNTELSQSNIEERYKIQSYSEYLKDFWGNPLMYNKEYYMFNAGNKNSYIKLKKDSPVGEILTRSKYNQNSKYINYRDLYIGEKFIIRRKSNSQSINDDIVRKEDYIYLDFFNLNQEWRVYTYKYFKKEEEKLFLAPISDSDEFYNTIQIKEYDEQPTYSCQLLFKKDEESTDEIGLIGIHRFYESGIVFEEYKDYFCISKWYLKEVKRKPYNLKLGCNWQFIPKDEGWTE"}, "[4]": {"biological_target": "T1, BoNT/B light chain (LC), yeast displayed", "experiment": "soluble scFv or IgG on yeast-displayed BoNT/B domains"}, "[5]": {"biological_target": "T3, BoNT/B translocation domain (HN), yeast displayed (Clostridium botulinum, UniProt P10844 442-857)", "T3 sequence": "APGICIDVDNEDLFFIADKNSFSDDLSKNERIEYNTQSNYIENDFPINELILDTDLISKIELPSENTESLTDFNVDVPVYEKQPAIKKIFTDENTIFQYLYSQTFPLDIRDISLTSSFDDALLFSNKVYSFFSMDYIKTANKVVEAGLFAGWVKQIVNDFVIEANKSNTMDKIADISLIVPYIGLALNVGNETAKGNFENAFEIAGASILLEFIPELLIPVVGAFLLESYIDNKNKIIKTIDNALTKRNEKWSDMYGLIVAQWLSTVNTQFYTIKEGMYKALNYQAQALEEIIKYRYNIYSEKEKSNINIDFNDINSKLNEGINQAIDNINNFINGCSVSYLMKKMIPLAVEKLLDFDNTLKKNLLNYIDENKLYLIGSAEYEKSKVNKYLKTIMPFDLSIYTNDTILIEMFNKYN", "experiment": "yeast-displayed scFv"}, "[6]": {"biological_target": "T3, BoNT/B translocation domain (HN), yeast …", "experiment": "soluble scFv or IgG on yeast-displayed BoNT/B domains"}, "[7]": {"biological_target": "T3, BoNT/B translocation domain (HN), yeast …", "experiment": "IgG/Fab on yeast-displayed toxin domain, flow cytometry"}, "[8]": {"biological_target": "T2, Botulinum neurotoxin type B, subtype B1 …", "experiment": "flow cytometry, yeast-displayed Fab"}, "[9]": {"biological_target": "T1, BoNT/B light chain (LC), yeast displayed", "experiment": "yeast-displayed scFv"}},
  "data": [
    {"binder": "B1", "values": [
      {"measurement": "fold higher affinity than the scFv", "setting": "[1]", "value": 1.46, "unit": "fold"}
    ]},
    {"binder": "B2", "values": [
      {"measurement": "binding result", "setting": "[2]", "value": "binds"}
    ]},
    {"binder": "B3", "values": [
      {"measurement": "fold increase in affinity, IgG against parental scFv", "setting": "[3]", "value": 2.25, "unit": "fold"}
    ]},
    {"binder": "B4", "values": [
      {"measurement": "binding result", "setting": "[4]", "value": "binds"}
    ]},
    {"binder": "B5", "values": [
      {"measurement": "binding result", "setting": "[5]", "value": "binds"}
    ]},
    {"binder": "B6", "values": [
      {"measurement": "binding result", "setting": "[6]", "value": "binds"}
    ]},
    {"binder": "B7", "values": [
      {"measurement": "binding result", "setting": "[7]", "value": "binds"}
    ]},
    {"binder": "B8", "values": [
      {"measurement": "binding result", "setting": "[6]", "value": "binds"}
    ]},
    {"binder": "B9", "values": [
      {"measurement": "binding result", "setting": "[8]", "value": "binds"}
    ]},
    {"binder": "B10", "values": [
      {"measurement": "binding result", "setting": "[9]", "value": "binds"}
    ]},
    {"binder": "B11", "values": [
      {"measurement": "binding result", "setting": "[2]", "value": "binds"}
    ]}
  ]
}
